Article PMC4441004, “Functional Characterization and Categorization of Missense Mutations that Cause Methylmalonyl‐CoA Mutase (MUT) Deficiency” (Human Mutation, 2014)

B1: MUT p.Y100C (enzyme, human)
chain: LHQQQPLHPEWAALAKKQLKGKNPEDLIWHTPEGISIKPLYSKRDTMDLPEELPGVKPFTRGPYPTMCTFRPWTIRQYAGFSTVEESNKFYKDNIKAGQQGLSVAFDLATHRGYDSDNPRVRGDVGMAGVAIDTVEDTKILFDGIPLEKMSVSMTMNGAVIPVLANFIVTGEEQGVPKEKLTGTIQNDILKEFMVRNTYIFPPEPSMKIIADIFEYTAKHMPKFNSISISGYHMQEAGADAILELAYTLADGLEYSRTGLQAGLTIDEFAPRLSFFWGIGMNFYMEIAKMRAGRRLWAHLIEKMFQPKNSKSLLLRAHCQTSGWSLTEQDPYNNIVRTAIEAMAAVFGGTQSLHTNSFDEALGLPTVKSARIARNTQIIIQEESGIPKVADPWGGSYMMECLTNDVYDAALKLINEIEEMGGMAKAVAEGIPKLRIEECAARRQARIDSGSEVIVGVNKYQLEKEDAVEVLAIDNTSVRNRQIEKLKKIKSSRDQALAERCLAALTECAASGDGNILALAVDASRARCTVGEITDALKKVFGEHKANDRMVSGAYRQEFGESKEITSAIKRVHKFMEREGRRPRLLVAKMGQDGHDRGAKVIATGFADLGFDVDIGPLFQTPREVAQQAVDADVHAVGISTLAAGHKTLVPELIKELNSLGRPDILVMCGGVIPPQDYEFLFEVGVSNVFGPGTRIPKAAVQVLDDIEKCLEKKQQSV
notes: methylmalonyl-CoA mutase (MUT), human; construct 'hMUT' of Froese et al., 2010b with a patient missense mutation; Same construct limits as m1 (see its note); source: E. coli, purified (Ni-NTA, Superdex 200, TEV cleavage, reverse Ni-NTA)
B2: MUT p.G426R (enzyme, human)
chain: LHQQQPLHPEWAALAKKQLKGKNPEDLIWHTPEGISIKPLYSKRDTMDLPEELPGVKPFTRGPYPTMYTFRPWTIRQYAGFSTVEESNKFYKDNIKAGQQGLSVAFDLATHRGYDSDNPRVRGDVGMAGVAIDTVEDTKILFDGIPLEKMSVSMTMNGAVIPVLANFIVTGEEQGVPKEKLTGTIQNDILKEFMVRNTYIFPPEPSMKIIADIFEYTAKHMPKFNSISISGYHMQEAGADAILELAYTLADGLEYSRTGLQAGLTIDEFAPRLSFFWGIGMNFYMEIAKMRAGRRLWAHLIEKMFQPKNSKSLLLRAHCQTSGWSLTEQDPYNNIVRTAIEAMAAVFGGTQSLHTNSFDEALGLPTVKSARIARNTQIIIQEESGIPKVADPWRGSYMMECLTNDVYDAALKLINEIEEMGGMAKAVAEGIPKLRIEECAARRQARIDSGSEVIVGVNKYQLEKEDAVEVLAIDNTSVRNRQIEKLKKIKSSRDQALAERCLAALTECAASGDGNILALAVDASRARCTVGEITDALKKVFGEHKANDRMVSGAYRQEFGESKEITSAIKRVHKFMEREGRRPRLLVAKMGQDGHDRGAKVIATGFADLGFDVDIGPLFQTPREVAQQAVDADVHAVGISTLAAGHKTLVPELIKELNSLGRPDILVMCGGVIPPQDYEFLFEVGVSNVFGPGTRIPKAAVQVLDDIEKCLEKKQQSV
notes: as for B1
B3: MUT p.Y231N (enzyme, human)
chain: LHQQQPLHPEWAALAKKQLKGKNPEDLIWHTPEGISIKPLYSKRDTMDLPEELPGVKPFTRGPYPTMYTFRPWTIRQYAGFSTVEESNKFYKDNIKAGQQGLSVAFDLATHRGYDSDNPRVRGDVGMAGVAIDTVEDTKILFDGIPLEKMSVSMTMNGAVIPVLANFIVTGEEQGVPKEKLTGTIQNDILKEFMVRNTNIFPPEPSMKIIADIFEYTAKHMPKFNSISISGYHMQEAGADAILELAYTLADGLEYSRTGLQAGLTIDEFAPRLSFFWGIGMNFYMEIAKMRAGRRLWAHLIEKMFQPKNSKSLLLRAHCQTSGWSLTEQDPYNNIVRTAIEAMAAVFGGTQSLHTNSFDEALGLPTVKSARIARNTQIIIQEESGIPKVADPWGGSYMMECLTNDVYDAALKLINEIEEMGGMAKAVAEGIPKLRIEECAARRQARIDSGSEVIVGVNKYQLEKEDAVEVLAIDNTSVRNRQIEKLKKIKSSRDQALAERCLAALTECAASGDGNILALAVDASRARCTVGEITDALKKVFGEHKANDRMVSGAYRQEFGESKEITSAIKRVHKFMEREGRRPRLLVAKMGQDGHDRGAKVIATGFADLGFDVDIGPLFQTPREVAQQAVDADVHAVGISTLAAGHKTLVPELIKELNSLGRPDILVMCGGVIPPQDYEFLFEVGVSNVFGPGTRIPKAAVQVLDDIEKCLEKKQQSV
notes: as for B1
B4: MUT p.R369H (enzyme, human)
chain: LHQQQPLHPEWAALAKKQLKGKNPEDLIWHTPEGISIKPLYSKRDTMDLPEELPGVKPFTRGPYPTMYTFRPWTIRQYAGFSTVEESNKFYKDNIKAGQQGLSVAFDLATHRGYDSDNPRVRGDVGMAGVAIDTVEDTKILFDGIPLEKMSVSMTMNGAVIPVLANFIVTGEEQGVPKEKLTGTIQNDILKEFMVRNTYIFPPEPSMKIIADIFEYTAKHMPKFNSISISGYHMQEAGADAILELAYTLADGLEYSRTGLQAGLTIDEFAPRLSFFWGIGMNFYMEIAKMRAGRRLWAHLIEKMFQPKNSKSLLLRAHCQTSGWSLTEQDPYNNIVHTAIEAMAAVFGGTQSLHTNSFDEALGLPTVKSARIARNTQIIIQEESGIPKVADPWGGSYMMECLTNDVYDAALKLINEIEEMGGMAKAVAEGIPKLRIEECAARRQARIDSGSEVIVGVNKYQLEKEDAVEVLAIDNTSVRNRQIEKLKKIKSSRDQALAERCLAALTECAASGDGNILALAVDASRARCTVGEITDALKKVFGEHKANDRMVSGAYRQEFGESKEITSAIKRVHKFMEREGRRPRLLVAKMGQDGHDRGAKVIATGFADLGFDVDIGPLFQTPREVAQQAVDADVHAVGISTLAAGHKTLVPELIKELNSLGRPDILVMCGGVIPPQDYEFLFEVGVSNVFGPGTRIPKAAVQVLDDIEKCLEKKQQSV
notes: as for B1
B5: MUT p.Q218H (enzyme, human)
chain: LHQQQPLHPEWAALAKKQLKGKNPEDLIWHTPEGISIKPLYSKRDTMDLPEELPGVKPFTRGPYPTMYTFRPWTIRQYAGFSTVEESNKFYKDNIKAGQQGLSVAFDLATHRGYDSDNPRVRGDVGMAGVAIDTVEDTKILFDGIPLEKMSVSMTMNGAVIPVLANFIVTGEEQGVPKEKLTGTIHNDILKEFMVRNTYIFPPEPSMKIIADIFEYTAKHMPKFNSISISGYHMQEAGADAILELAYTLADGLEYSRTGLQAGLTIDEFAPRLSFFWGIGMNFYMEIAKMRAGRRLWAHLIEKMFQPKNSKSLLLRAHCQTSGWSLTEQDPYNNIVRTAIEAMAAVFGGTQSLHTNSFDEALGLPTVKSARIARNTQIIIQEESGIPKVADPWGGSYMMECLTNDVYDAALKLINEIEEMGGMAKAVAEGIPKLRIEECAARRQARIDSGSEVIVGVNKYQLEKEDAVEVLAIDNTSVRNRQIEKLKKIKSSRDQALAERCLAALTECAASGDGNILALAVDASRARCTVGEITDALKKVFGEHKANDRMVSGAYRQEFGESKEITSAIKRVHKFMEREGRRPRLLVAKMGQDGHDRGAKVIATGFADLGFDVDIGPLFQTPREVAQQAVDADVHAVGISTLAAGHKTLVPELIKELNSLGRPDILVMCGGVIPPQDYEFLFEVGVSNVFGPGTRIPKAAVQVLDDIEKCLEKKQQSV
notes: as for B1
B6: MUT p.T387I (enzyme, human)
chain: LHQQQPLHPEWAALAKKQLKGKNPEDLIWHTPEGISIKPLYSKRDTMDLPEELPGVKPFTRGPYPTMYTFRPWTIRQYAGFSTVEESNKFYKDNIKAGQQGLSVAFDLATHRGYDSDNPRVRGDVGMAGVAIDTVEDTKILFDGIPLEKMSVSMTMNGAVIPVLANFIVTGEEQGVPKEKLTGTIQNDILKEFMVRNTYIFPPEPSMKIIADIFEYTAKHMPKFNSISISGYHMQEAGADAILELAYTLADGLEYSRTGLQAGLTIDEFAPRLSFFWGIGMNFYMEIAKMRAGRRLWAHLIEKMFQPKNSKSLLLRAHCQTSGWSLTEQDPYNNIVRTAIEAMAAVFGGTQSLHINSFDEALGLPTVKSARIARNTQIIIQEESGIPKVADPWGGSYMMECLTNDVYDAALKLINEIEEMGGMAKAVAEGIPKLRIEECAARRQARIDSGSEVIVGVNKYQLEKEDAVEVLAIDNTSVRNRQIEKLKKIKSSRDQALAERCLAALTECAASGDGNILALAVDASRARCTVGEITDALKKVFGEHKANDRMVSGAYRQEFGESKEITSAIKRVHKFMEREGRRPRLLVAKMGQDGHDRGAKVIATGFADLGFDVDIGPLFQTPREVAQQAVDADVHAVGISTLAAGHKTLVPELIKELNSLGRPDILVMCGGVIPPQDYEFLFEVGVSNVFGPGTRIPKAAVQVLDDIEKCLEKKQQSV
notes: as for B1
B7: MUT p.N366S (enzyme, human)
chain: LHQQQPLHPEWAALAKKQLKGKNPEDLIWHTPEGISIKPLYSKRDTMDLPEELPGVKPFTRGPYPTMYTFRPWTIRQYAGFSTVEESNKFYKDNIKAGQQGLSVAFDLATHRGYDSDNPRVRGDVGMAGVAIDTVEDTKILFDGIPLEKMSVSMTMNGAVIPVLANFIVTGEEQGVPKEKLTGTIQNDILKEFMVRNTYIFPPEPSMKIIADIFEYTAKHMPKFNSISISGYHMQEAGADAILELAYTLADGLEYSRTGLQAGLTIDEFAPRLSFFWGIGMNFYMEIAKMRAGRRLWAHLIEKMFQPKNSKSLLLRAHCQTSGWSLTEQDPYNSIVRTAIEAMAAVFGGTQSLHTNSFDEALGLPTVKSARIARNTQIIIQEESGIPKVADPWGGSYMMECLTNDVYDAALKLINEIEEMGGMAKAVAEGIPKLRIEECAARRQARIDSGSEVIVGVNKYQLEKEDAVEVLAIDNTSVRNRQIEKLKKIKSSRDQALAERCLAALTECAASGDGNILALAVDASRARCTVGEITDALKKVFGEHKANDRMVSGAYRQEFGESKEITSAIKRVHKFMEREGRRPRLLVAKMGQDGHDRGAKVIATGFADLGFDVDIGPLFQTPREVAQQAVDADVHAVGISTLAAGHKTLVPELIKELNSLGRPDILVMCGGVIPPQDYEFLFEVGVSNVFGPGTRIPKAAVQVLDDIEKCLEKKQQSV
notes: as for B1

Biological target: the molecule itself
Test: SEC; Superdex 200 in the large-scale purification from E. coli; retention volumes of the mutants compared with wt MUT; data not shown

Stoichiometry N, 2:
B1
B2
B3
B4
B5
B6
B7
